We go through 1 molecule from patent publication US20250064852A1 (University of Pennsylvania, published 2025).

Assay [1] deals with T1, recombinant human CD5 protein conjugated to a polyhistidine (His) tag at the C-terminus (Sino Biologicals); … (human, UniProt P06127 25-372).
T1 construct: Bought reagent; also called recombinant CD5 protein; not shown: C-terminal polyhistidine tag
T1 sequence (looked up): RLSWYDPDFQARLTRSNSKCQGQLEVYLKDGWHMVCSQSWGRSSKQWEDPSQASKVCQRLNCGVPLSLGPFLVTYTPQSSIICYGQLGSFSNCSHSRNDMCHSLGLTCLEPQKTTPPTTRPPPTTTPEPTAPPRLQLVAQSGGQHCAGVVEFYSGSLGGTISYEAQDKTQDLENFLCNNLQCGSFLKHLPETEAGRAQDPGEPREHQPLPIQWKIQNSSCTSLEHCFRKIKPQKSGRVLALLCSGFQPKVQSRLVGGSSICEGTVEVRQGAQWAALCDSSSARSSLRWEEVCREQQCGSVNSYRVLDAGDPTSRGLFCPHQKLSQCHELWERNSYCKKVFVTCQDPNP
Put plainly: flow cytometry on CAR T cells, APC anti-6x His-tag secondary antibody. From the text:
General flow cytometry: Cells were resuspended in FACS staining buffer (phosphate buffered saline (PBS)+2% FBS) using one or more of the following antibodies: CD5 (UCHT2; BioLegend; Cat #300612), CD4, CD8 (RPA-T8; BD Biosciences; Cat #563795), CD45RA (L48; BD Biosciences; Cat #347723), CCR7 (G043H7; BioLegend; Cat #353214), PD1 (EH12.1; BD Biosciences; Cat #562516), LAG3 (3DS223H; Invitrogen; Cat #11-2239-42), CD3 (UCHT1; BD Biosciences; Cat #565119 or OKT3; BioLegend; Cat #317334), hCD45 (2D1; BioLegend; Cat #368522), or mCD45. CAR5 was detected by incubating cells with recombinant human CD5 protein conjugated to a polyhistidine (His) tag at the C-terminus (Sino Biologicals; Cat #11027-H08H) followed by an Allophycocyanin (APC) anti-6× His-tag secondary antibody (Abcam; Cat #ab72579). CARmeso was detected using a Biotin-SP goat anti-human F(ab′)₂ antibody (Jackson ImmunoResearch; Cat #109-066-097) followed by an R-Phycoerythrin (PE) streptavidin secondary antibody (Jackson ImmunoResearch; Cat #016-110-084). All changes in overall tumor or T cell counts reflected by absolute cell counts were determined using Flow-Count Fluorospheres (Beckman; Cat #754053). Cell viability was established using ViaKrome 808 Fixable Viability Dye (Beckman; Cat #C36628) and data were acquired on an LSRII Fortessa Cytometer (BD) or CytoFlex LX Flow Cytometer (Beckman). […]
In general terms: In flow cytometry, cells or beads pass a laser one at a time.

Assay [2] has as its target T2, human CD5 (human, UniProt P06127 25-495).
T2 construct: whole, on cells; also called primary target CD5
T2 sequence (looked up): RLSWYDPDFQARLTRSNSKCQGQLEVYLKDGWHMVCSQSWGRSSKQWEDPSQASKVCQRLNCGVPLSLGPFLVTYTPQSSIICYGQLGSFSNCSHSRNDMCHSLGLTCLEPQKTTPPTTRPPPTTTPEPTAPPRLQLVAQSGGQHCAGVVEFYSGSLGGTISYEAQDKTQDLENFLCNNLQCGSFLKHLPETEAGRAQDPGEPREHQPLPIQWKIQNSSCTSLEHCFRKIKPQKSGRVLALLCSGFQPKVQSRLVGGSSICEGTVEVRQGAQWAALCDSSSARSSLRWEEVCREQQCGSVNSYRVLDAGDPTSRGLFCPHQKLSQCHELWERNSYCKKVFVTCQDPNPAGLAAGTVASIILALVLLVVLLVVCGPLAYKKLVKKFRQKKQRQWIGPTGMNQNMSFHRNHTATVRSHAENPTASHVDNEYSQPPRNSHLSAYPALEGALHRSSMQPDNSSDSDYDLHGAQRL
As to the kind of experiment: cell microarray (Retrogenix): labelled CAR T cells on fixed HEK293 cells expressing human membrane proteins; library and confirmation screen. From the text: CART5 on- and off-targeting specificity analysis: For a library screen, CD5 KO CART5 cells were fluorescently labelled and screened for binding against fixed HEK293 cells/slides expressing 5828 human plasma membrane proteins and cell surface tethered human secreted proteins+398 human heterodimers in duplicates (18 slide sets, n=2 slides per slide set, 3.2×10⁷ cells/slide). In total, 22 primary hits (duplicate spots) were identified by analyzing fluorescence (Alexa Fluor 647 and ZsGreen1) on ImageQuant. There were a range of intensities (signal to background) from very weak to strong. A confirmation screen was performed by testing Mock KO UTD and CD5 KO CART5 cell binding against all 22 hits in duplicate on new slides. Library and confirmation screens as well as analyses were performed at Retrogenix, Charles River Laboratories.

B1: CD5-17H2L-3054 CAR (anti-CD5 chimeric antigen receptor, clone #17, heavy-to-light chain orientation) (other)
chain: GSEVQLVESGPGLVQPSQSLSITCTVSGFSLTNYDVHWVRQSPGKGLEWLGVIWNYGNTDYNAAFISRLSIRKDSSKSQVFFTMSSLQTPDTAIYYCARNHGDGYYNWYFDVWGTGTTVTVSSGGGGSGGGGSGGGGSNIVLTQSPSSLSESLGGKVTITCKASQDINKYIAWYQYKPGKGPRLLIHYTSTLQPGIPSRFSGSGSGRDYSFSISNLEPEDIATYYCLQYDNLWTFGGGTKLEIKSRTTTPAPRPPTPAPTIASQPLSLRPEACRPAAGGAVHTRGLDFACDIYIWAPLAGTCGVLLLSLVITLYCHMKRGRKKLLYIFKQPFMRPVQTTQEEDGCSCRFPEEEEGGCELTSRVKFSRSADAPAYQQGQNQLYNELNLGRREEYDVLDKRRGRDPEMGGKPRRKNPQEGLYNELQKDKMAEAYSEIGMKGERRRGKGHDGLYQGLSTATKDTYDALHMQALPPR
notes: also called CAR5; anti-CD5 CAR
B1: the binding result in assay [1] and in assay [2] was “binds” throughout.
